7 molecules from patent US20140161803A1 (IFOM FONDAZIONE ISTITUO FIRC DI ONCOLOGIA MOLECOLARE, published 2014) can be followed below.

Where a chain is given by its changes, count along the chain named. Like-named read-outs stand apart in the source and are kept apart here. A value given as a limit tells only on which side of the number the result lay.

The target of one experiment is wild-type human uPAR (human, UniProt Q03405 23-305, GPI-anchor on Gly283). Description: cell-based or functional assay.
In experiment [1] the target is T1, pro-uPA (UniProt P00749 21-431, limits assumed, Eu3+-label in the cell binding competition assay).
T1 construct: also called immobilized uPA
Briefly: soluble receptor titrated on immobilized pro-uPA; detection 13F6 + Eu3+ anti-mouse, time-resolved fluorescence. How it is done:
The bound material was detected by measuring time-resolved fluorescence intensity. Specific binding was calculated by subtracting the non-specific binding measured in uncoated wells incubated with identical samples. […] The binding curve and dissociation constant (Kd) were calculated by non-linear regression (four-parameter fit) using the Prism 5.0 software suite.
ON. […] The Eu³⁺-label was detected by measuring time-resolved fluorescence intensity using an Envision Xcite plate reader (Perkin Elmer Corp.) employing the DELFIA label protocol. To calculate the specific binding, non-specific binding measured in uncoated wells, incubated with identical samples, was subtracted from the total binding measured in coated wells.

For a further experiment, the target named is T2, vitronectin (UniProt P04004 20-478, limits assumed).
T2 construct: also called VN; immobilized VN
T2 sequence (P04004 20-478 limits assumed): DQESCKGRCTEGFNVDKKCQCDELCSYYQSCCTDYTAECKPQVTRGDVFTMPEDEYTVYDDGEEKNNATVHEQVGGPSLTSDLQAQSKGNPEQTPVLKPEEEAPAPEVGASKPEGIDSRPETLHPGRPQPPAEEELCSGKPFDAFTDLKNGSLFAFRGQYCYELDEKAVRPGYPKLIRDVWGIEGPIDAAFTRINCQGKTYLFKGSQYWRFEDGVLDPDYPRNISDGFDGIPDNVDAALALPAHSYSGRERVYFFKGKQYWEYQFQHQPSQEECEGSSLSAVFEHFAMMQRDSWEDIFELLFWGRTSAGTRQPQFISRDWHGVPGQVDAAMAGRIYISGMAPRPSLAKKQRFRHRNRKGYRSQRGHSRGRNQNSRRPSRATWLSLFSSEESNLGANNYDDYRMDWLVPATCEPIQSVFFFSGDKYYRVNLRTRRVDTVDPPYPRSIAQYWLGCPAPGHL
Briefly: soluble receptor titrated on immobilized VN without pro-uPA; detection 13F6 + Eu3+ anti-mouse, time-resolved fluorescence. As to the method:
The data are from a single experiment and presented as means±SD. The binding curve and Kd were calculated by non-linear regression. […] The data are from a single experiment and are represented as means±SD. The binding curve and Kd were calculated by non-linear regression.

For experiment [2], the target named is T1, pro-uPA. Description: soluble receptor titrated on immobilized pro-uPA; detection 13F6 + Eu3+ anti-mouse, time-resolved fluorescence. How it is done:
The bound material was detected by measuring time-resolved fluorescence intensity. Specific binding was calculated by subtracting the non-specific binding measured in uncoated wells incubated with identical samples. The data shown are means±SD from a representative experiment. The binding curve, equilibrium dissociation constant (Kd, in nanomolar units) and maximum binding capacity (Bmax, in CPS units (counts per second)) were calculated by non-linear regression (four-parameter fit) using the Prism 5.0 software suite.
The source holds these as a separate data set.

B1: BE18 (antibody, mouse IgG1, V domains shown)
VH: ELVKPGASVKIICKASGYIFTDYNMDWVKQSHGKSLEWIGEINPNNGDTIYNQNFKGKATLTVDKSSSTAHMALRSLTSEDTAVYYCTRKGGLRAWFVYWGQGTLVTVS
VL: MSASPGEKVTMTCRASSSVSSSYLHWYQQKSGASPKVWIYSTSNLASGVPARFSGSGSGTSYSLTISSVEAEDAATYYCQQYSGYPLTFGSGTKLEIQ
Consider B1, for which, in the experiment with wild-type human uPAR, the “% max inhibition (pro-uPA pre-treat.)” value is under 20% and the “% max inhibition (veh. pre-treat.)” value is 37%.

B2: 13D11 (antibody, V domains shown)
VH: ELMKPGASVKLSCKATGYTFTDYWIEWVKQRPGHGLEWIGEILPGRDSTDYNENFKGKATFTADTSSNTAYMQLSSLTTEDSAIYYCARDYYGHISNWYFDVWGTGTTVTVS
VL: SLSASLGERVSLTCRASQDIGSSLNWLQQEPDGTIKRLIYATSSLDSGVPKRFSGSRSGSDYSLTISSLESVDFVVYYCLQYATSPYTFGGGTKLEIKR
B2: in the experiment with wild-type human uPAR, the “% max inhibition (pro-uPA pre-treat.)” value was 82% and the “% max inhibition (veh. pre-treat.)” value was 38%.

B3: AL6 (antibody, V domains shown)
VH: ELMKPGASVKLSCKATGYSFTGYWIEWVKQRPGHGLEWIGEILPGSDRTNYNEKFKGKATFTADTSSNTAYMQLSSLTTEDSAIYYCARDDYDRGLYIMDYWGQGTSVTVS
VL: B2 VL with S22T, K36R, D46P, S47P, V72E, V76N
With B3, in the experiment with wild-type human uPAR, the “% max inhibition (pro-uPA pre-treat.)” value was under 20% and the “% max inhibition (veh. pre-treat.)” value is under 20%.

B4: 19.10 (antibody, V domains shown)
VH: ELVKPGASVKLSCKATGYTFTVYWMEWVRQRPGHGLEWIGEILPGSGRTNYNERFKGKATFTADTSSNTAYMQLSSLTTEDSAIYYCARDYSGDTSTGYFDVWGTGTTVTVS
VL: B2 VL with S23G, N25S, V72E, V76D
In the case of B4, in the experiment with wild-type human uPAR, the “% max inhibition (pro-uPA pre-treat.)” value was 79% and the “% max inhibition (veh. pre-treat.)” value was determined as 67%.

B5: ^GFDuPARmyc (receptor)
chain: SNELHQVPSNCDCLNGGTCVSNKYFSNIHWCNCPKKFGGQHCEIDKSKGGAGAAGGLRCMQCKTNGDCRVEECALGQDLCRTTIVRLWEEGEELELVEKSCTHSEKTNRTLSYRTGLKITSLTEVVCGLDLCNQGNSGRAVTYSRSRYLECISCGSSDMSCERGRHQSLQCRSPEEQCLDVVTHWIQEGEEGRPKDDRHLRGCGYLPGCPGSNGFHNNDTFHFLKCCNTTKCNEGPILELENLPQNGRQCYSCKGNSTHGCSSEETFLIDCRGPMNQCLVATGTHEPKNQSYMVRGCATASMCQHAHLGDAFSMNHIDVSCCTKSGCNHPGGEQKLISEEDL
notes: used as concentrated CHO conditioned medium; also called soluble GFDuPAR
For the molecule B5, the Kd with pro-uPA [1] was 28 nM; with vitronectin it was 0.62 nM.

B6: uPARmyc (receptor)
chain: LRCMQCKTNGDCRVEECALGQDLCRTTIVRLWEEGEELELVEKSCTHSEKTNRTLSYRTGLKITSLTEVVCGLDLCNQGNSGRAVTYSRSRYLECISCGSSDMSCERGRHQSLQCRSPEEQCLDVVTHWIQEGEEGRPKDDRHLRGCGYLPGCPGSNGFHNNDTFHFLKCCNTTKCNEGPILELENLPQNGRQCYSCKGNSTHGCSSEETFLIDCRGPMNQCLVATGTHEPKNQSYMVRGCATASMCQHAHLGDAFSMNHIDVSCCTKSGCNHPGGEQKLISEEDL
notes: monomeric control receptor; used as concentrated CHO conditioned medium without purification; also called soluble monomeric form of uPAR with a C-terminal myc-tag
Turning to B6, the dissociation constant Kd was 11 nM in the experiment with pro-uPA [2] and 1.1 nM with pro-uPA [1].

B7: 13F6 (antibody, mouse IgG1, V domains shown)
VH: ELVKPGASVELSCKASGYTFTSYWMNWVKQRPGRGLEWIGRIAPNSGGTQYSGKFKTKATLTVDKSSSTAYMQLSSLTSEDSAVYYCARGDYFGHFDYWGQGTTLTVS
VL: SLSASLGGKVTITCKASQDINNYIAWYQHKPGKGPRLLIHYTSILQPGIPSRFSGSGSGRDYSFSISNLEPEDIATYYCLQCDNLLTFGAGTKLELK
As to B7, in the experiment with wild-type human uPAR, the “% max inhibition (pro-uPA pre-treat.)” value is under 20% and the “% max inhibition (veh. pre-treat.)” value is under 20%.
